Measured values: US20200048360A1 (TRACON PHARMACEUTICALS, published 2020)
Like-named read-outs stand apart in the source and are kept apart here.

T1: human CD105 (R&D Systems, Catalog No. 1097-EN) (human, UniProt P17813 26-586)
T1 construct: Captured on the plate by mouse anti-human CD105 (Southern Biotechnologies 9811-01); also called endoglin
T1 sequence (looked up): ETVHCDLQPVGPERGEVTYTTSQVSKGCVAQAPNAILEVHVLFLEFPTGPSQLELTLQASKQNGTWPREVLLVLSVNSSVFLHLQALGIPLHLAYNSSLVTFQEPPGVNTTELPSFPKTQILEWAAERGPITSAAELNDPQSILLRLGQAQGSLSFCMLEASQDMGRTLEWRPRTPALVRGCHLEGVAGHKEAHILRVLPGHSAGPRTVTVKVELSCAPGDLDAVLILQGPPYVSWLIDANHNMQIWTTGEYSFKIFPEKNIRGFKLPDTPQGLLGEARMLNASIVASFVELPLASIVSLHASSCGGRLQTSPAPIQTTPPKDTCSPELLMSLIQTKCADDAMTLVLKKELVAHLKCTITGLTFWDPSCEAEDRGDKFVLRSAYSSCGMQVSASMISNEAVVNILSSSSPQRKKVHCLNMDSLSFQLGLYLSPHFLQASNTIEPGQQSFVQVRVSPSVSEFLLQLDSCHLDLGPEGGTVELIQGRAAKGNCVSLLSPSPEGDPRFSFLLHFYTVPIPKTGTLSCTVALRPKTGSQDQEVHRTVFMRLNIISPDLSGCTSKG

B1: VK2AAVH1Q (antibody, V domains shown)
VH: EVQLVESGGGLVKPGGSLRLSCAASGFTFSDAWMDWVRQAPGKGLEWVGEIRSQASNHATYYAESVKGRFTISRDDSKNTLYLQMNSLKTEDTAVYYCTRWRRFFDSWGQGTLVTVSS
VL: DIQLTQSPSSLSASVGDRATITCRASSSVSYMHWYQQKPGKAPKPWAYATSNLASGVPSRFSGSGSGTDYTLTISSLQPEDFATYYCQQWSSNPLTFGGGTKVEIK
notes: IgG1 heavy chain, kappa light chain
B2: VK2AAVH1R (antibody, V domains shown)
VH: EVQLVESGGGLVKPGGSLRLSCAASGFTFSDAWMDWVRQAPGKGLEWVGEIRSRASNHATYYAESVKGRFTISRDDSKNTLYLQMNSLKTEDTAVYYCTRWRRFFDSWGQGTLVTVSS
VL: DIQLTQSPSSLSASVGDRATITCRASSSVSYMHWYQQKPGKAPKPWAYATSNLASGVPSRFSGSGSGTDYTLTISSLQPEDFATYYCQQWSSNPLTFGGGTKVEIK
notes: as for B1
B3: VK2SAVH1R (antibody, V domains shown)
VH: EVQLVESGGGLVKPGGSLRLSCAASGFTFSDAWMDWVRQAPGKGLEWVGEIRSRASNHATYYAESVKGRFTISRDDSKNTLYLQMNSLKTEDTAVYYCTRWRRFFDSWGQGTLVTVSS
VL: DIQLTQSPSSLSASVGDRVTISCRASSSVSYMHWYQQKPGKAPKPWAYATSNLASGVPSRFSGSGSGTDYTLTISSLQPEDFATYYCQQWSSNPLTFGGGTKVEIK
notes: as for B1
B4: VK2SSVH1Q (antibody, V domains shown)
VH: EVQLVESGGGLVKPGGSLRLSCAASGFTFSDAWMDWVRQAPGKGLEWVGEIRSQASNHATYYAESVKGRFTISRDDSKNTLYLQMNSLKTEDTAVYYCTRWRRFFDSWGQGTLVTVSS
VL: DIQLTQSPSSLSASVGDRVTISCRASSSVSYMHWYQQKPGKAPKPWIYASSNLASGVPSRFSGSGSGTDYTLTISSLQPEDFATYYCQQWSSNPLTFGGGTKVEIK
notes: as for B1
B5: VK2SAVH1A (antibody, V domains shown)
VH: EVQLVESGGGLVKPGGSLRLSCAASGFTFSDAWMDWVRQAPGKGLEWVAEIRSKASNHATYYAESVKGRFTISRDDSKNTLYLQMNSLKTEDTAVYYCTRWRRFFDSWGQGTLVTVSS
VL: DIQLTQSPSSLSASVGDRVTISCRASSSVSYMHWYQQKPGKAPKPWAYATSNLASGVPSRFSGSGSGTDYTLTISSLQPEDFATYYCQQWSSNPLTFGGGTKVEIK
notes: as for B1
B6: VK2SSVH1R (antibody, V domains shown)
VH: EVQLVESGGGLVKPGGSLRLSCAASGFTFSDAWMDWVRQAPGKGLEWVGEIRSRASNHATYYAESVKGRFTISRDDSKNTLYLQMNSLKTEDTAVYYCTRWRRFFDSWGQGTLVTVSS
VL: DIQLTQSPSSLSASVGDRVTISCRASSSVSYMHWYQQKPGKAPKPWIYASSNLASGVPSRFSGSGSGTDYTLTISSLQPEDFATYYCQQWSSNPLTFGGGTKVEIK
notes: as for B1
B7: VK2ASVH1R (antibody, V domains shown)
VH: EVQLVESGGGLVKPGGSLRLSCAASGFTFSDAWMDWVRQAPGKGLEWVGEIRSRASNHATYYAESVKGRFTISRDDSKNTLYLQMNSLKTEDTAVYYCTRWRRFFDSWGQGTLVTVSS
VL: DIQLTQSPSSLSASVGDRATITCRASSSVSYMHWYQQKPGKAPKPWIYASSNLASGVPSRFSGSGSGTDYTLTISSLQPEDFATYYCQQWSSNPLTFGGGTKVEIK
notes: as for B1
B8: VK2SSVH1S (antibody, V domains shown)
VH: EVQLVESGGGLVKPGGSLRLSCAASGFTFSDAWMDWVRQAPGKGLEWVSEIRSKASNHATYYAESVKGRFTISRDDSKNTLYLQMNSLKTEDTAVYYCTRWRRFFDSWGQGTLVTVSS
VL: DIQLTQSPSSLSASVGDRVTISCRASSSVSYMHWYQQKPGKAPKPWIYASSNLASGVPSRFSGSGSGTDYTLTISSLQPEDFATYYCQQWSSNPLTFGGGTKVEIK
notes: as for B1
B9: VK2SSVH1A2 (antibody, V domains shown)
VH: EVQLVESGGGLVKPGGSLRLSCAASGFTFSDAWMDWVRQAPGKGLEWVGEARSKASNHATYYAESVKGRFTISRDDSKNTLYLQMNSLKTEDTAVYYCTRWRRFFDSWGQGTLVTVSS
VL: DIQLTQSPSSLSASVGDRVTISCRASSSVSYMHWYQQKPGKAPKPWIYASSNLASGVPSRFSGSGSGTDYTLTISSLQPEDFATYYCQQWSSNPLTFGGGTKVEIK
notes: as for B1
B10: VK2SAVH1A2 (antibody, V domains shown)
VH: EVQLVESGGGLVKPGGSLRLSCAASGFTFSDAWMDWVRQAPGKGLEWVGEARSKASNHATYYAESVKGRFTISRDDSKNTLYLQMNSLKTEDTAVYYCTRWRRFFDSWGQGTLVTVSS
VL: DIQLTQSPSSLSASVGDRVTISCRASSSVSYMHWYQQKPGKAPKPWAYATSNLASGVPSRFSGSGSGTDYTLTISSLQPEDFATYYCQQWSSNPLTFGGGTKVEIK
notes: as for B1
B11: VK2ASVH1S (antibody, V domains shown)
VH: EVQLVESGGGLVKPGGSLRLSCAASGFTFSDAWMDWVRQAPGKGLEWVSEIRSKASNHATYYAESVKGRFTISRDDSKNTLYLQMNSLKTEDTAVYYCTRWRRFFDSWGQGTLVTVSS
VL: DIQLTQSPSSLSASVGDRATITCRASSSVSYMHWYQQKPGKAPKPWIYASSNLASGVPSRFSGSGSGTDYTLTISSLQPEDFATYYCQQWSSNPLTFGGGTKVEIK
notes: as for B1
B12: VK2ASVH1Q (antibody, V domains shown)
VH: EVQLVESGGGLVKPGGSLRLSCAASGFTFSDAWMDWVRQAPGKGLEWVGEIRSQASNHATYYAESVKGRFTISRDDSKNTLYLQMNSLKTEDTAVYYCTRWRRFFDSWGQGTLVTVSS
VL: DIQLTQSPSSLSASVGDRATITCRASSSVSYMHWYQQKPGKAPKPWIYASSNLASGVPSRFSGSGSGTDYTLTISSLQPEDFATYYCQQWSSNPLTFGGGTKVEIK
notes: as for B1
B13: VK2SAVH1Q (antibody, V domains shown)
VH: EVQLVESGGGLVKPGGSLRLSCAASGFTFSDAWMDWVRQAPGKGLEWVGEIRSQASNHATYYAESVKGRFTISRDDSKNTLYLQMNSLKTEDTAVYYCTRWRRFFDSWGQGTLVTVSS
VL: DIQLTQSPSSLSASVGDRVTISCRASSSVSYMHWYQQKPGKAPKPWAYATSNLASGVPSRFSGSGSGTDYTLTISSLQPEDFATYYCQQWSSNPLTFGGGTKVEIK
notes: as for B1
B14: VK2ASVH1A (antibody, V domains shown)
VH: EVQLVESGGGLVKPGGSLRLSCAASGFTFSDAWMDWVRQAPGKGLEWVAEIRSKASNHATYYAESVKGRFTISRDDSKNTLYLQMNSLKTEDTAVYYCTRWRRFFDSWGQGTLVTVSS
VL: DIQLTQSPSSLSASVGDRATITCRASSSVSYMHWYQQKPGKAPKPWIYASSNLASGVPSRFSGSGSGTDYTLTISSLQPEDFATYYCQQWSSNPLTFGGGTKVEIK
notes: as for B1
B15: VK2SAVH1S (antibody, V domains shown)
VH: EVQLVESGGGLVKPGGSLRLSCAASGFTFSDAWMDWVRQAPGKGLEWVSEIRSKASNHATYYAESVKGRFTISRDDSKNTLYLQMNSLKTEDTAVYYCTRWRRFFDSWGQGTLVTVSS
VL: DIQLTQSPSSLSASVGDRVTISCRASSSVSYMHWYQQKPGKAPKPWAYATSNLASGVPSRFSGSGSGTDYTLTISSLQPEDFATYYCQQWSSNPLTFGGGTKVEIK
notes: as for B1

What was measured:
[1] = target: T1, human CD105 (R&D Systems, Catalog No. …); test: competition ELISA on captured human CD105; competitor biotinylated chimeric anti-CD105
Experimental: Antibodies were tested in a competition ELISA for binding to CD105 against biotinylated chimeric anti-CD105. Briefly, chimeric anti-CD105 was biotinylated using a micro-biotinylation kit (Sigma, Catalog No. BTAG-1KT) following the manufacturer's instructions. […] Binding of the biotinylated chimeric antibody was detected via streptavidin-HRP (Sigma, Catalog No. 55512) and TMB substrate (Sigma, Catalog No. T0440). OD450 nm values were measured on a Dynex MRX TCII plate reader. The results of the competition analysis are illustrated in FIGS. 7 and 8. […] To allow for comparisons within and between experiments, IC50 values of humanized or humanized/deimmunized variants were normalized against the reference antibody that was included on each plate to give a value for the fold difference. IC50 values are relative to chimeric anti-CD105 and are representative of three experiments. Summary ELISA data are presented in Table 1 and include antibody expression levels […]) as assayed in saturated static cultures.

[2] = target: T1, human CD105 (R&D Systems, Catalog No. …); test: ELISA with OD450 falling against test antibody concentration (competition format of paragraph 712: biotinylated chimeric anti-CD105 on captured human CD105; the legend says only 'binding assay data')
[3] = target: T1, human CD105 (R&D Systems, Catalog No. …); test: as above; remark: listed apart in the source
[4] = target: T1, human CD105 (R&D Systems, Catalog No. …); test: as above; remark: listed apart in the source

| Binder | Relative IC50 (fold of chimeric anti-endoglin antibody) [1] | further results |
| --- | --- | --- |
| B1 | 0.76 fold relative to chimeric | IC50 (read off the curve) [2]: ~0.1 µg/mL; IC50 (read off the curve) [3]: ~0.1 µg/mL |
| B2 | 0.61 fold relative to chimeric | IC50 (read off the curve) [4]: ~0.1 µg/mL; IC50 (read off the curve) [2]: ~0.1 µg/mL |
| B3 | 0.77 fold relative to chimeric |  |
| B4 | 1.21 fold relative to chimeric |  |
| B5 | 0.49 fold relative to chimeric |  |
| B6 | 0.62 fold relative to chimeric |  |
| B7 | 1.02 fold relative to chimeric |  |
| B8 | 1.21 fold relative to chimeric |  |
| B9 | 1.03 fold relative to chimeric |  |
| B10 | 0.84 fold relative to chimeric |  |
| B11 | 1.31 fold relative to chimeric |  |
| B12 | 1.04 fold relative to chimeric |  |
| B13 | 0.87 fold relative to chimeric |  |
| B14 | 1.41 fold relative to chimeric |  |
| B15 | 0.96 fold relative to chimeric |  |
